Patent US20230167185A1 (STRIKE PHARMA, published 2023)

B1: X-SM083-bi-23 (bispecific antibody, human IgG2, kappa)
heavy: EVQLLESGGGLVQPGGSLRLSCAASGFTFSSYAMSWVRQAPGKGLEWVSGISGYSGSTYYADSVKGRFTISRDNSKNTLYLQMNSLRAEDTAVYYCARYYSYYGYYYFDYWGQGTLVTVSSASTKGPSVFPLAPCSRSTSESTAALGCLVKDYFPEPVTVSWNSGALTSGVHTFPAVLQSSGLYSLSSVVTVPSSNFGTQTYTCNVDHKPSNTKVDKTVERKCCVECPPCPAPPVAGPSVFLFPPKPKDTLMISRTPEVTCVVVDVSHEDPEVQFNWYVDGVEVHNAKTKPREEQFNSTFRVVSVLTVVHQDWLNGKEYKCKVSNKGLPAPIEKTISKTKGQPREPQVYTLPPSREEMTKNQVSLTCLVKGFYPSDIAVEWESNGQPENNYKTTPPMLDSDGSFFLYSKLTVDKSRWQQGNVFSCSVMHEALHNHYTQKSLSLSPGKGGGGSGGGGSEVQLLESGGGLVQPGGSLRLSCAASGFTFSNYWMSWVRQAPGKGLEWVSGISGNGGYTYFADSVKDRFTISRDNSKNTLYLQMNSLRAEDTAVYYCAGGDGSGWSFWGQGTLVTVSSGGGGSGGGGSGGGGSGGGGSQSVLTQPPSASGTPGQRVTISCTGSSSNIGAGYDVHWYQQLPGTAPKLLIYGNNNRPSGVPDRFSGSKSGTSASLAISGLRSEDEADYYCAAWDDSLSGRVFGGGTKLTVL
light: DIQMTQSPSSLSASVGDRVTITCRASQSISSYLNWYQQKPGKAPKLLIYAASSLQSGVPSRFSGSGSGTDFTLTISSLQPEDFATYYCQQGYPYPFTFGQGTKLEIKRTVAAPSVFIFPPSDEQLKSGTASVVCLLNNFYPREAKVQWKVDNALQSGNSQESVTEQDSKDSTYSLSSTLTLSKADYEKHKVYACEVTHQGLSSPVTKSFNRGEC
B2: Y-SM083-B8 (antibody, V domains shown)
VH: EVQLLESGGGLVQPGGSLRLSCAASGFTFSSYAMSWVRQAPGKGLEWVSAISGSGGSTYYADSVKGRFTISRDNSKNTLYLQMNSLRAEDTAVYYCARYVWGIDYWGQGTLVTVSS
VL: DIQMTQSPSSLSASVGDRVTITCRASQSISSYLNWYQQKPGKAPKLLIYAASSLQSGVPSRFSGSGSGTDFTLTISSLQPEDFATYYCQQGYGYPPFTFGQGTKLEIK
B3: Y-SM083-A9 (antibody, human IgG2, kappa, V domains shown)
VH: EVQLLESGGGLVQPGGSLRLSCAASGFTFSSYAMSWVRQAPGKGLEWVSGISGYSGSTYYADSVKGRFTISRDNSKNTLYLQMNSLRAEDTAVYYCARYYSYYGYYYFDYWGQGTLVTVSS
VL: DIQMTQSPSSLSASVGDRVTITCRASQSISSYLNWYQQKPGKAPKLLIYAASSLQSGVPSRFSGSGSGTDFTLTISSLQPEDFATYYCQQGYPYPFTFGQGTKLEIKR
notes: also called A9 antibody; SP9

Legend:
[1] = target: human CD40 on cells (CD19+ cells of PBMC; monocyte-derived dendritic cells) (human, UniProt P25942 21-277); assay: cell-based or functional assay
[2] = target: T1, Cynomolgus CD40 Fc chimera (R&D Systems #9660-CD) (cynomolgus, UniProt G7PG38 21-193); assay: SPR, captured IgG2, SCK, 1:1 model; apparent KD (appKD), dimeric antigen
T1 construct: range 21-193; also called cCD40-Fc

[3] = target: T2, Human CD40 Fc chimera (R&D Systems #1493-CDB) (human, UniProt P25942 21-193); assay: as above
T2 construct: also called hCD40-Fc

[4] = target: T3, Mouse CD40 (AcroBiosystems #TN5-M52H8) (mouse, UniProt P27512 24-193); assay: SPR, captured IgG2, single injection of mCD40
T3 construct: range 24-193; also called mCD40

[5] = target: T2, Human CD40 Fc chimera (R&D Systems …); assay: SPR, captured IgG2, SCK, 1:1 model, dimeric antigen
[6] = target: T4, Biotinylated human CD40 (AcroBiosystems #CD0-H82E8) (human, UniProt P25942 21-193); assay: SPR, captured IgG2, SCK, 1:1 model
T4 construct: also called hCD40-avi; Human CD40-avi; not shown: C-terminal Avi-tag

[7] = target: T1, Cynomolgus CD40 Fc chimera (R&D Systems …); assay: SPR, captured IgG2, SCK, 1:1 model, dimeric antigen
[8] = target: T5, caCD40-Fc (Sino Biological #70105-D02H) (canine, UniProt Q7YRL5 21-194); assay: SPR, captured IgG2, caCD40-Fc 0.16-100 nM, SCK
T5 construct: also called Canine CD40-Fc; canine CD40; not shown: Fc part of the bought fusion
T5 sequence (looked up): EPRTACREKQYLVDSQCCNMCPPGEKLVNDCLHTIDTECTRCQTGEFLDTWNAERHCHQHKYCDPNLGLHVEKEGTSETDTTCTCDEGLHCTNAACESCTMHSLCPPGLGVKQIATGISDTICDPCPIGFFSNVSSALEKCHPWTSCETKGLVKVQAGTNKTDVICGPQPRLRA

T1 sequence (G7PG38 entry or part of it mutant): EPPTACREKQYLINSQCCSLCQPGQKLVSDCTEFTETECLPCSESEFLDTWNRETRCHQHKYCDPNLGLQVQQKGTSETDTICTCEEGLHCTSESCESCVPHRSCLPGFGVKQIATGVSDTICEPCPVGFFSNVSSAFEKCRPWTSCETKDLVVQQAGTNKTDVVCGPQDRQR
T2 sequence (P25942 21-193, change not shown): as the sequence (G7PG38 entry or part of it mutant) above, with S43G, R56H, Q70R, L89W, S95A, P101L, L106S, R142H, Q172L counted along it
T4 sequence (P25942 21-193): as the sequence (G7PG38 entry or part of it mutant) above, with S43G, R56H, Q70R, L89W, S95A, P101L, L106S, R142H, Q172L counted along it
T3 sequence (P27512 24-193 limits assumed): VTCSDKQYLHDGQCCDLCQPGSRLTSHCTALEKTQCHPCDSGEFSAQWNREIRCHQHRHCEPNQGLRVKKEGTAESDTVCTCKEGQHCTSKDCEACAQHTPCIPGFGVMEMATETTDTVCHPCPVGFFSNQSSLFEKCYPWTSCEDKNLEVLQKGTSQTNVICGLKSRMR
Chain of human CD40 on cells (CD19+ cells of PBMC; monocyte-derived dendritic cells) (P25942 21-277 limits assumed): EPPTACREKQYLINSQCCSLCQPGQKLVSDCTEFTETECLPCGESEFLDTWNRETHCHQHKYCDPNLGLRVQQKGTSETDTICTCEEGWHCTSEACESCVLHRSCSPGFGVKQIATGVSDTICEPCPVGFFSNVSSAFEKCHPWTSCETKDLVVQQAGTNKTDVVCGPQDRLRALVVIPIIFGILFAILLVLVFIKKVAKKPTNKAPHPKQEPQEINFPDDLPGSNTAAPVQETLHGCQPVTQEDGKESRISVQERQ

Binder | agonistic activity relative to the parental antibody SP9 (A9) (IL-12 production by MoDCs) [1] | Kd [2] | Kd [3] | binding result [4] | koff [5] | kon [5] | Kd [6] | koff [7] | kon [7] | binding result [8] | koff [6] | kon [6]
B1 | 92% |  |  |  |  |  |  |  |  |  |  | 
B2 |  | 13 nM | 13 nM | no binding (tested: 80 nM) | 0.0015 s⁻¹ | 120000 M⁻¹ s⁻¹ | 15 nM |  |  |  |  | 
B3 |  | 4.5 nM | 5.1 nM | no binding (tested: 80 nM) | 0.0016 s⁻¹ | 310000 M⁻¹ s⁻¹ | 37 nM | 0.0022 s⁻¹ | 500000 M⁻¹ s⁻¹ | no binding (tested: 100 nM) | 0.0061 s⁻¹ | 170000 M⁻¹ s⁻¹
